Assay results published in patent publication US7897573B2, “Selective VPAC2 receptor peptide agonists” (priority 2005, dated 2011).
Like-named read-outs stand apart in the source and are kept apart here. Where no end group is shown, it is not given here.

Assays:
Human VPAC1 Receptor = target: T1, Human VPAC1 Receptor (Homo sapiens, UniProt P32241); test: Filter binding assay, 125I-labeled VIP, membranes of cells transiently transfected with human VPAC1; details: 125I-labeled VIP tracer
T1 construct: expressed in transfected cells
T1 sequence (P32241 31-457): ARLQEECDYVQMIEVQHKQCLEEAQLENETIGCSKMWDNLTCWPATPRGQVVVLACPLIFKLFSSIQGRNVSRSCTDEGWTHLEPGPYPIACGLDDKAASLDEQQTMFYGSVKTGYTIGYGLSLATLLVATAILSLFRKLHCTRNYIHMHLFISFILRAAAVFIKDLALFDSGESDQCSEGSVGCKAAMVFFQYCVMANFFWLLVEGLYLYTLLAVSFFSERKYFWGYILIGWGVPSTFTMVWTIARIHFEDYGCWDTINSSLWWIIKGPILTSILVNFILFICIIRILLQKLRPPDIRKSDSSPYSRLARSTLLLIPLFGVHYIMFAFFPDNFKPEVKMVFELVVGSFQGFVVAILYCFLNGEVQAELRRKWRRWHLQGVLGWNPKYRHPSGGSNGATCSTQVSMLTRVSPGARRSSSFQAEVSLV
Description: (§1) For this assay, the solutions and equipment include:
(§2) Presoak solution: 0.5% Polyethyleneamine in Aqua dest
(§3) Buffer for flushing filter plates: 25 mM HEPES pH 7.4
(§4) Blocking buffer: 25 mM HEPES pH 7.4; 0.2% protease free BSA
(§5) Assay buffer: 25 mM HEPES pH 7.4; 0.5% protease free BSA
(§6) Dilution and assay plate: PS-Microplate, U form
(§7) Filtration Plate Multiscreen FB Opaque Plate; […] Type B Glasfiber filter
(§8) In order to prepare the filter plates, the presoak solution is aspirated by vacuum filtration. The plates are flushed twice with 200 μL flush buffer. 200 μL blocking buffer is added to the filter plate. The filter plate is then incubated with 200 μL presoak solution for 1 hour at room temperature.
(§9) The assay plate is filled with 25 μL assay buffer, 25 μL membranes (2.5 μg) suspended in assay buffer, 25 μL agonist in assay buffer, and 25 μL tracer (about 40000 cpm) in assay buffer. The filled plate is incubated for 1 hour with shaking.
(§10) The transfer from assay plate to filter plate is conducted. The blocking buffer is aspirated by vacuum filtration and washed two times with flush buffer. 90 μL is transferred from the assay plate to the filter plate. The 90 μL transferred from assay plate is aspirated and washed three times with 200 μL flush buffer. The plastic support is removed. It is dried for 1 hour at 60° C. 30 μL Microscint is added. The count is performed.

Human PAC1 Receptor = target: T2, Human PAC1 Receptor (Homo sapiens, UniProt P41586); test: Filter binding assay, 125I-labeled PACAP-27, membranes of cells transiently transfected with human PAC1
T2 construct: expressed in transfected cells
T2 sequence (P41586 21-468): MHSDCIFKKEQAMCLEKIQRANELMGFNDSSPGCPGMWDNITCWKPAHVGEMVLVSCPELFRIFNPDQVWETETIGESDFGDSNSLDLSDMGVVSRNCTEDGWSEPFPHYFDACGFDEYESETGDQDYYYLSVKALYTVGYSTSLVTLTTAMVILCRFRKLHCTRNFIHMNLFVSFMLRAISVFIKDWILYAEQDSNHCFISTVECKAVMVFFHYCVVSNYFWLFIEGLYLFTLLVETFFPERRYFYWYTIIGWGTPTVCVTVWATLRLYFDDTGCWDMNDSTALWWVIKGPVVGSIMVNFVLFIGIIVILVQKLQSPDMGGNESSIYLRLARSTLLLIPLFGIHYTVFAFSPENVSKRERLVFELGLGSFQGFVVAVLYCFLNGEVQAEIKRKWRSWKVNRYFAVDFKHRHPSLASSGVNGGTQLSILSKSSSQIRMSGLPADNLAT
Description: as §1, §2, §3, §4, §5, §6, §7, §8, §9, §10

[1] = Pharmacokinetic profiles of PEGylated peptides in Fisher 344 rats; type: in vivo, rat; details: 100 μg agonist/kg, plasma RIA, mean N = 3
Description: Pharmacokinetic profiles of PEGylated peptides. Healthy Fisher 344 rats (3 animals per group) were injected with 100 μg agonist/kg (agonist amount based on peptide content and dissolved in PBS buffer). Blood samples were drawn 3, 12, 24, 48, 72, 96 and 168 hour post dosing and the peptide content in plasma was analysed by a radio-immunoassay (RIA) directed against the N-terminus of the peptide. PK parameters were then calculated using a model-independent method (WinNonlin Pro, Pharsight Corp., Mountain View, Calif., USA).

[2] = Rat serum stability study (DiscoveRx cAMP read-out on CHO-VPAC2 cells); details: 24 h in rat serum at 37° C.; EC50, 4° C./EC50, 37° C.; values >100% may represent release of intact peptide from the PEG conjugate
Description: In order to determine the stability of VPAC2 receptor peptide agonists in rat serum, CHO-VPAC2 cells clone #6 (96 well plates/50,000 cells/well and 1 day culture), PBS 1× (Gibco), the peptides for the analysis in a 100 μM stock solution, rat serum from a sacrificed normal Wistar rat, aprotinin, and a DiscoveRx assay kit are obtained. The rat serum is stored at 4° C. until use and is used within two weeks.
The aliquot is stored with aprotinin at 4° C. The aliquot is stored without aprotinin at 37° C. The aliquots are incubated for 24 or 72 hours.
On Day 1, after incubation of the aliquots prepared on day 0 for 24 or 72 hours, an incubation buffer containing PBS+1.3 mM CaCl2, 1.2 mM MgCl2, 2 mM glucose, and 0.25 mM IBMX is prepared. A plate with 11 serial 5× dilutions of peptide for the 4° C. and 37° C. aliquot is prepared for each peptide studied. […] The plate(s) are washed with cells twice in incubation buffer. The plates are allowed to hold 50 μL incubation media per well for 15 minutes. 50 μL solution per well is transferred to the cells from the plate prepared with 11 serial 5× dilutions of peptide for the 4° C. and 37° C. aliquot for each peptide studied, using the maximal concentrations that are indicated by the primary screen, in duplicate. This step dilutes the peptide concentration by a factor of two. The cells are incubated at room temperature for 30 minutes. The supernatant is removed. 40 μL/well of the DiscoveRx antibody/extraction buffer is added. The cells are incubated on the shaker (300 rpm) for 1 hour. Normal procedure with the DiscoveRx kit is followed. cAMP standards are included in column 12. EC50 values are determined from the cAMP assay data.

Normal Wistar rats = test: Intravenous glucose tolerance test (IVGTT); type: in vivo, rat; details: AUC insulin, 0-10 min after glucose, 24 h between glucose & compound, Wistar rats
Description: Intravenous glucose tolerance test (IVGTT): Normal Wistar rats are fasted overnight and are anesthetized prior to the experiment. A blood sampling catheter is inserted into the rats. The agonist is given subcutaneously, normally 24 h prior to the glucose challenge. Blood samples are taken from the carotid artery. A blood sample is drawn immediately prior to the injection of glucose along with the agonist. After the initial blood sample, glucose mixed is injected intravenously (i.v.). A glucose challenge of 0.5 g/kg body weight is given, injecting a total of 1.5 mL vehicle with glucose and agonist per kg body weight. The peptide concentrations are varied to produce the desired dose in μg/kg. Blood samples are drawn at 2, 4, 6 and 10 minutes after giving glucose. The control group of animals receives the same vehicle along with glucose, but with no agonist added. In some instances, 20 and 30 minute post-glucose blood samples were drawn. Aprotinin is added to the blood sample (250-500 kIU/ml blood). The plasma is then analyzed for glucose and insulin using standard methodologies.
The assay uses a formulated and calibrated peptide stock in PBS. Normally, this stock is a prediluted 100 μM stock. However, a more concentrated stock with approximately 1 mg agonist per mL is used. The specific concentration is always known. Variability in the maximal response is mostly due to variability in the vehicle dose.

Molecule | IC50 (Human VPAC1 Receptor) [nM] | IC50 (Human PAC1 Receptor; 125I-labeled PACAP-27 tracer) [nM] | AUC0-last [1] [ng·h/mL] | Cl/F [1] [mL/min/kg] | Cmax [1] [ng/mL] | Tmax [1] [h] | T½ [1] [h] | 24 h stab (%) [2] [%] | % increase AUC: Dose = 0.1 mg/kg (Normal Wistar rats) [%] | % increase AUC: Dose = 0.3 mg/kg (Normal Wistar rats) [%] | IC50 (Human PAC1 Receptor) [nM] | % increase AUC: Dose = 0.09 mg/kg (Normal Wistar rats; 0.09 mg/kg) [%]
C6-HSDAVFTEQY(OMe)TOrnLRAibQVAAAibOrnYLQSIOrnOrnC(PEG20K)GGPSSGAPPPC(PEG20K)NH2 (HSDAVFTEQYTXLRXQVAAXXYLQSIXXCGGPSSGAPPPC; C6 acyl, two PEG20K, C-terminal amide; Synthetic sequence PEGylated VPAC2 receptor agonist) [Agonist P562] | > 25000 | > 25000 | 5456 | 0.317 | 120 | 24 | 25 | 213 | – | – | – | –
C6-HSDAVFTEQY(OMe)TOrnLRAibQVAAbuAibOrnYLQAibIOrnOrnGGPSSGAPPPC(PEG40K)-NH2 (HSDAVFTEQYTXLRXQVAXXXYLQXIXXGGPSSGAPPPC; C6 acyl, PEG40K on Cys, C-terminal amide; Synthetic sequence PEGylated VPAC2 receptor agonist) [Agonist P511] | > 25000 | > 25000 | 3067 | – | 100 | 16 | – | – | 38 | 59 | – | –
CC[C@H](C)[C@H](NC(=O)[C@H](CO)NC(=O)[C@H](CC(N)=O)NC(=O)[C@H](CC(C)C)NC(=O)[C@H](Cc1ccc(O)cc1)NC(=O)[C@H](CCCCN)NC(=O)[C@H](CCCCN)NC(=O)[C@@H](NC(=O)[C@H](C)NC(=O)[C@H](CCSC)NC(=O)[C@H](CCC(N)=O)NC(=O)[C@H](CCCCN)NC(=O)[C@H](CCCN=C(N)N)NC(=O)[C@H](CC(C)C)NC(=O)[C@H](CCCN=C(N)N)NC(=O)[C@@H](NC(=O)[C@H](Cc1ccc(O)cc1)NC(=O)[C@H](CC(N)=O)NC(=O)[C@H](CC(=O)O)NC(=O)[C@@H](NC(=O)[C@H](Cc1ccccc1)NC(=O)[C@@H](NC(=O)[C@H](C)NC(=O)[C@H](CC(=O)O)NC(=O)[C@H](CO)NC(=O)[C@@H](N)Cc1cnc[nH]1)C(C)C)[C@@H](C)O)[C@@H](C)O)C(C)C)C(=O)N[C@@H](CC(C)C)C(=O)N[C@@H](CC(N)=O)C(=O)O [VIP, reference compound] | – | – | – | – | – | – | – | 0.2 | – | – | > 1000 | –
C6-HSDAVFTEQY(OMe)TOrnLRAibQLAAbuAibOrnY(OMe)LQAibIOrnOrnGGPSSGAPPPC(PEG20K)C(PEG20K)-NH2 (HSDAVFTEQYTXLRXQLAXXXYLQXIXXGGPSSGAPPPCC; C6 acyl, non-natural residues, two PEG20K, C-terminal amide; Synthetic sequence PEGylated VPAC2 receptor agonist) [Agonist P574] | > 25000 | > 25000 | 3408 | 0.467 | 70 | 20 | 18 | 288 | – | – | – | –
C6-HSDAVFTEQY(OMe)TOrnLRAibQLAAbuAibOrnYLQSIOrnC(PEG20K)OrnGGPSSGAPPPC(PEG20K)-NH2 (HSDAVFTEQYTXLRXQLAXXXYLQSIXCXGGPSSGAPPPC; C6 acyl, two PEG20K, C-terminal amide; Synthetic sequence PEGylated VPAC2 receptor agonist) [Agonist P555] | > 25000 | > 25000 | 4918 | 0.333 | 102 | 16 | 13 | 117 | – | – | – | –
C6-HSDAVFTEQY(OMe)TOrnLRAibQLAAbuAibOrnyLQAibIOrnOrnGGPSSGAPPPC(PEG30K)C(PEG30K)-NH2 (HSDAVFTEQYTXLRXQLAXXXYLQXIXXGGPSSGAPPPCC; not fully specified (some residues, N-terminus, C-terminus); printed as C6-HSDAVFTEQY(OMe)TOrnLRAibQLAAbuAibOrnyLQAibIOrnOrnGGPSSGAPPPC(PEG30K)C(PEG30K)-NH2; cysteine pairing not given here) [Agonist P570] | > 25000 | > 25000 | 3891 | 0.417 | 71 | 20 | 25 | – | 36 | – | – | –
C6-HSDAVFTEQY(OMe)TOrnLRAibQLAAbuAibOrnyAibQSIOrnOrnGGPSSGAPPPC(PEG30K)C(PEG30K)-NH2 (HSDAVFTEQYTXLRXQLAXXXYXQSIXXGGPSSGAPPPCC; not fully specified (some residues, N-terminus, C-terminus); printed as C6-HSDAVFTEQY(OMe)TOrnLRAibQLAAbuAibOrnyAibQSIOrnOrnGGPSSGAPPPC(PEG30K)C(PEG30K)-NH2; cysteine pairing not given here) [Agonist P602] | > 25000 | > 25000 | – | – | – | – | – | 573 | – | 198 | – | 73
